# In the supplement of paper PMC7125110:
# ± gives the standard error. Fewer inactive variants are shown than the library holds.
# B1: glmS ribozyme (parent)
# chain: AUAAAAGCGCCAGAACUACAGAAAUGUAGUUGACGAGGAGGAGGUUUAUCGAAUUUUCGGCGGAUGCCUCCAAA
# Variants of: B1
# Experiment: self-cleavage kobs at 2500 uM GlcN6P; higher = faster cleavage; RNA array
# Details: with glucosamine-6-phosphate
# In short: (§1)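 A hybridised Cy3 probe tracked barcoded ribozyme variants, transcribed in situ by E. coli RNA polymerase on sequenced MiSeq chips, at 37 °C. The variants received 40 μM to 10 mM glucosamine-6-phosphate in HEPES/KCl/Mg(OAc)2 buffer. kobs came from decay fits and kcat and KM from weighted Michaelis–Menten fits.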
row,Variant,self-cleavage kobs at 2500 uM GlcN6P [s⁻¹]
1,G41A U49C U57A G59U C68G,< 1e-05
2,A6G G41U U46G G60C,< 1e-05
3,C8G A33G A52G A53G C68A U69G,0.000457 ± 0.00011
4,G38C U56A C67G C68G,0.000115 ± 4.5e-05
5,A6G C34U G40C,< 1e-05
6,G9U C10U C67U,< 1e-05
7,C16U G35U G62U G63U,< 1e-05
8,A15G G32C C68G,< 1e-05
9,A12U A36G A52C C67U C71U,< 1e-05
10,U47G A48U U56G C68A,0.000324 ± 0.00012
11,C11A C16A A42C,< 1e-05
12,G7C G13A A52U G66C,< 1e-05
13,G9U G32A A33C,< 1e-05
14,G41U C50G U57C C58U C70U,< 1e-05
15,G41C G59U C67U,< 1e-05
16,U45G U56A C71U,0.000974 ± 0.00025
17,A14G C34A U55G C70A,< 1e-05
18,G29A G43C C68G,0.00377 ± 0.0014
19,G9U C16A U30G,< 1e-05
20,A12G U45G C50A U57G,< 1e-05
21,G51C C67G C71U,< 1e-05
22,U31A A48G G59A,0.000108 ± 3.6e-05
23,A12C A15G G43C,< 1e-05

row,Variant,self-cleavage kobs at 2500 uM GlcN6P [s⁻¹]
1,G32U G38C G40C U57C C67A,< 1e-05
2,G13A U65G,8.18e-05 ± 2e-05
3,A36C U47G A52G G60C,< 1e-05
4,C34A G40C U46C U47A G59C,< 1e-05
5,G43A C50G U69G,< 1e-05
6,G7C C34A U46G G63C,< 1e-05
7,G29U U57A C68G,8.07e-05 ± 2.8e-05
8,A14C U46G C70A,0.000308 ± 9.2e-05
9,G7C A42G G59U,< 1e-05
10,A14C A33G G35C G38C G44A A48U C50U,< 1e-05
11,C11U A14C C16A G38U G40A C50G,6.83e-05 ± 2.4e-05
12,A15U U45A U65G,0.00134 ± 0.00059
13,G38A U56G,< 1e-05
14,A52G C68U C70U,0.000745 ± 0.00024
15,A12G U45G U54G,0.000192 ± 5.5e-05
16,A12C G37U A52G,< 1e-05
17,A14G G29C A39G,0.000197 ± 9.1e-05
18,C11U G29A U49G G62A C67G,< 1e-05
19,A36C G41U G43U G51C C58G G60A C67A,< 1e-05
20,U31G G32U C71U,0.000775 ± 0.00015
21,A52C A53G U57G C70G,5.76e-05 ± 2.3e-05
22,A12G A33G G44C,< 1e-05
23,A14C C34G A48C,< 1e-05

row,Variant,self-cleavage kobs at 2500 uM GlcN6P [s⁻¹]
1,A12U G40A A53C,0.00179 ± 0.00063
2,G32A U45G G51C,< 1e-05
3,G29C C50U A53G C71U,< 1e-05
4,C16A G32U U55G,0.000117 ± 3.5e-05
5,A15U C16U C58G C70U,7.87e-05 ± 2.1e-05
6,G32C G38U C58G,< 1e-05
7,C10G A42C U45G,< 1e-05
8,A33C G59C A64G G66A C70A,< 1e-05
9,C67A C68U C70U,2.78e-05 ± 1.3e-05
10,U30G G37A A42U,6.68e-05 ± 1.2e-05
11,U45G G60A C67G C68U,< 1e-05
12,U47A A48C G51U,< 1e-05
13,C8A G59A C70U,< 1e-05
14,G32U U56G C71A,9.14e-05 ± 2e-05
15,U46G G59C C68U C70A,< 1e-05
16,C8A C61G A64G,< 1e-05
17,A14G A15C C71A,0.00262 ± 0.00058
18,G32U G43A A64G,< 1e-05
19,C8G A64G U69A C71U,< 1e-05
20,A12U G44C A53G U56A,7.9e-05 ± 2.1e-05
21,G35U G41A A52U C71U,< 1e-05
22,G9A G44U G60A,< 1e-05
23,A14G U31G G43C,< 1e-05

row,Variant,self-cleavage kobs at 2500 uM GlcN6P [s⁻¹]
1,C34G C58A C71U,< 1e-05
2,G37U G38C U55C,< 1e-05
3,U31G G32U C58U,8.74e-05 ± 2.9e-05
4,A6U C16G C71G,0.000356 ± 0.00014
5,A6U A12U U55A,0.000377 ± 9.2e-05
6,A12C U30A G60A,< 1e-05
7,A6C G7C C10U G29C C58G,< 1e-05
8,G37U A39U G44C C50G C70U,< 1e-05
9,G7C U30G G37A,< 1e-05
10,A12U G35U A53U C61G U65C,< 1e-05
11,A12U G13A G32C A36G C61U,< 1e-05
12,G44C G51A U55C U56C,< 1e-05
13,A6C U31C G41C A42G U45G G59C G66U,< 1e-05
14,C10G C16G G32C A42U G60U,< 1e-05
15,C8G U46G A48U U55G G66U C70U,< 1e-05
16,A33C A53U U54G,0.000173 ± 4.3e-05
17,A14G G44C,0.000239 ± 4.2e-05
18,C19A U31C U45G,0.000156 ± 4.3e-05
19,C16A U31C G43A U47G A53G C68U,8.35e-05 ± 2.9e-05
20,U31A A39G C67U,0.00111 ± 0.0004
21,C8U G38A C70A,< 1e-05
22,A14G A42C U49C,< 1e-05
23,C10A A15C U46A C61U U65C,< 1e-05

row,Variant,self-cleavage kobs at 2500 uM GlcN6P [s⁻¹]
1,C8G G40U G41C,< 1e-05
2,C11A G43U U54G,< 1e-05
3,A33U G41U G62U,< 1e-05
4,C16U U46C A53C,0.000978 ± 0.0002
5,C10G G40A G60U,< 1e-05
6,G35U A42U U49A A53U,< 1e-05
7,G7A U31C A39G A52U,< 1e-05
8,G37U G44U G59A C70U,< 1e-05
9,G43A G44A U47A G59C,< 1e-05
10,G13A A36U G40A,< 1e-05
11,C8A A33C G40A U47G,< 1e-05
12,A12G U56G C70G,0.000113 ± 3e-05
13,G37C G60C C68G,< 1e-05
14,G13C G29C G38U C67G,0.000596 ± 0.0002
15,C11U C19A,0.000235 ± 0.0001
16,C16A A53U U55A,0.000149 ± 3.9e-05
17,C8U A36U C50U,< 1e-05
18,A15U G44U C71U,< 1e-05
19,A39U G66A C68G,4.5e-05 ± 2e-05
20,A14G U31C G40U U55A,0.0012 ± 0.00032
21,G13U A39C A48C,< 1e-05
22,G9A A14G A15U U55A,7.2e-05 ± 1.6e-05
23,A12G A53C U56G,5.07e-05 ± 1.5e-05

row,Variant,self-cleavage kobs at 2500 uM GlcN6P [s⁻¹]
1,C34G G35C G51C U57G C58U,< 1e-05
2,G29A G41A,6.8e-05 ± 2e-05
3,G29A G60U A64G,< 1e-05
4,A33G U56C G60A,< 1e-05
5,A14U A52C A53G U55C U57G,< 1e-05
6,G32C G35U G41C C58A A64G,< 1e-05
7,G40C U54G C70U,0.000933 ± 0.00021
8,A36U A48U U56C,< 1e-05
9,A12G U49A U65A,< 1e-05
10,G32U G40C A42G,7.39e-05 ± 1.8e-05
11,G7A G38U G41U,< 1e-05
12,A15G A39U G60C,< 1e-05
13,G9A C11G A33U G35A C58A C70G,< 1e-05
14,G9A A42U,< 1e-05
15,C11U U46G A52U G66A,< 1e-05
16,G9C A12G C58G,< 1e-05
17,G44U U46A,0.000112 ± 3.8e-05
18,G41U U47C G51U,< 1e-05
19,G29U U57A,4.22e-05 ± 1.5e-05
20,G44U U46G C70U C71G,< 1e-05
21,G32C A33C G37C A48C C71U,< 1e-05
22,C19A U30C,7.18e-05 ± 2.3e-05
23,A6U G29U A36G G44A U55C,< 1e-05

row,Variant,self-cleavage kobs at 2500 uM GlcN6P [s⁻¹]
1,A12U A14U G29C U49A,< 1e-05
2,U47A C50A G59U G66C,< 1e-05
3,G7A U31C G35C A42C U46G U54G,< 1e-05
4,C8A G41A U65C,< 1e-05
5,U30C U45G C70U,7.88e-05 ± 1.9e-05
6,G7U A64G G66A,< 1e-05
7,U45A U47A G59U C61A,< 1e-05
8,C11U U31C C50U,< 1e-05
9,A6U C11U U57G C58G C61A C68U C70U,0.000618 ± 0.00019
10,A15U G35C C68G,< 1e-05
11,C11G G13A C16G G29C G37C A53G,< 1e-05
12,A6C G32A G59C,< 1e-05
13,G43A U46C A53G,< 1e-05
14,U31C G37U U65A,< 1e-05
15,U31G G32A A64G,0.000581 ± 0.00022
16,G40A U55A U56C,0.000458 ± 0.00017
17,G41A U46A G66A,9.01e-05 ± 3.1e-05
18,A12G A42U U69A,0.000849 ± 0.00021
19,A12G C16U C67U,0.000252 ± 5.2e-05

# Variants of: B1
# Experiment: self-cleavage kobs at 10000 uM GlcN6P; higher = faster cleavage; RNA array
# Details: with glucosamine-6-phosphate
# In short: as §1
row,Variant,self-cleavage kobs at 10000 uM GlcN6P [s⁻¹]
1,U47G A48U U56G C68A,4.62e-05 ± 1.6e-05
2,A12G U45G C50A U57G,< 1e-05
3,A12C A15G G43C,< 1e-05
4,A14G G29C A39G,0.000412 ± 7.6e-05
5,A14C C34G A48C,< 1e-05
6,A12U G40A A53C,0.00159 ± 0.00056
7,C16A G32U U55G,0.000315 ± 4.6e-05
8,A33C G59C A64G G66A C70A,< 1e-05
9,C67A C68U C70U,6.71e-05 ± 1.9e-05
10,U30G G37A A42U,9.36e-05 ± 2.3e-05
11,A12C U30A G60A,< 1e-05
12,A6C U31C G41C A42G U45G G59C G66U,< 1e-05
13,A14G G44C,0.000423 ± 7.7e-05
14,A12G U56G C70G,7.52e-05 ± 2e-05
15,A15U G44U C71U,< 1e-05
16,G29A G41A,5.78e-05 ± 1.5e-05
17,G44U U46A,0.000117 ± 2.9e-05
18,C19A U30C,6.71e-05 ± 2.2e-05
19,U31G G32A A64G,0.00106 ± 0.00026
20,A12G A42U U69A,0.00112 ± 0.00029
